Results published in patent US20210353740A1.
Several values for one entry are separate records, joined by “and”; a condition that tells them apart may be missing. Equal entries are not always repeated.

Tests used:
[1] = molecular target: FP-rTT monomer (HIV-1 Env fusion peptides conjugated to monomeric rTT) (HIV-1); experiment: isothermal titration calorimetry (ITC), Fab against conjugate
[2] = molecular target: LS-Spy-rTT-FP8v1/PEG2 nanoparticle carrier (HIV-1); experiment: as above

For VRC34.01 Fab, the competent Fab binding sites per entity (ITC stoichiometry) (binding sites per FP-rTT monomer) [1] was 6 and the competent Fab binding sites per entity (ITC stoichiometry) (binding sites per nanoparticle carrier) [2] was 152 and 402.
